# Substitutions are numbered along the chain they refer to.
# B1: VHH229B2 (VHH)
# VHH: QVQLVESGGGLVQAGGSLRLSCAASGRTFSSYAMGWFRQAPGKEREFVSAISWNGGSRYYVESVEGRFTISRDNAKNTVYLQMNSLKPEDTAVYYCAASRIYTNYVARSYEYDDWGQGTQVTVSS
# B2: VHH241B2 (VHH)
# VHH: QVQLVESGGGLVQLGDSLRLSCAASGRGFSSWTMAWFRQALGKRREFVAAITATGARTCSAESEGRFTISRDNAKNMVFLQMNSLKAEDTAVYYCAATGIASWDPGMADKYTYWGQGTQVTVSS
# B3: VHH277B2 (VHH)
# VHH: B2 VHH with G99E, S102G, A108G, T112P
# B4: VHH216B2 (VHH)
# VHH: QVQLVESGGGLVQPGGSLRLSCATSEHTFGTYRMGWFRQAPGKEREFVAGISWTGQTTYYAASVKGRFAISKDNAKNTVYLQMNTLKSDDTAVYYCAVETNNLGRWDRPSEYDYWGQGTQVTVSS
# B5: VHH211B2 (VHH)
# VHH: QVQLVESGGGLVQAGNSLRLSCAASGRTFSSYVVGWFRQAPGKEREFVGRISWSGARTYYADSVKGRFTISRDNAKNTVYLQMNSLKPEDTAVYYCAADLKWEVLLSEHFEYWGQGTQVTVSS
# B6: VHH93B2 (VHH)
# VHH: QVQLVESGGGLVQPGGSLRLSCAASGFTFEPYDMSWFRQAPGKGPEWVSAIDKGGGAGATYYADSVKGRFTISRDNAKKTLYLQMKSLKPEDTAVYYCAITAGPYSDSTPRVAYRGEGTQVTVSS
# B7: VHH219B2 (VHH)
# VHH: B5 VHH with V5E, N16G, K65E, F110Y
# B8: VHH230B2 (VHH)
# VHH: B1 VHH with N54S, G56L, R58T, E65Q
# B9: VHH356B2 (VHH)
# VHH: QLQLVESGGGLVQPGGSLRLSCAASGSIFSINAMGWYRQAPGKQRELVAAITSGGSTAYADSVKGRFTISRDNAKNTVYLQMNSLKPEDTAVYYCNADRDPITSWYVRGDYWGQGTQVTVSS
# Biological target: human IL-12Rβ2-huFc-his (R&D system), biotinylated (human) (UniProt Q99665)
# Sequence (Q99665 24-622 limits assumed): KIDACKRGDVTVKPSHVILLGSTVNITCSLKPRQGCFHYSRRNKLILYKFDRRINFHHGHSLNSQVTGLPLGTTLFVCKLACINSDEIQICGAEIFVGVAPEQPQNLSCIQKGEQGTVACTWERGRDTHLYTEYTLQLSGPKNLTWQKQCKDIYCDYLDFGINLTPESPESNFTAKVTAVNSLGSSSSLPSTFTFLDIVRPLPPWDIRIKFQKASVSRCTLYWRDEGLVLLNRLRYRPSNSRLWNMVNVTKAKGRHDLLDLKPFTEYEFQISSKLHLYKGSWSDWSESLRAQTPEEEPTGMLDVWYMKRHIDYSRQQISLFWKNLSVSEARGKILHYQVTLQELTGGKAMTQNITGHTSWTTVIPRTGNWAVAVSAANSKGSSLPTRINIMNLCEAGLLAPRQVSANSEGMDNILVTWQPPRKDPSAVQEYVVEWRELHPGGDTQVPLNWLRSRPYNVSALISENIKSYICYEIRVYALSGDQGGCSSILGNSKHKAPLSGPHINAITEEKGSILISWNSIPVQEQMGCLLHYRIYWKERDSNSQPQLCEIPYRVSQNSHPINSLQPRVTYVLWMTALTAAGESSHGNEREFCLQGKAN
# Test: ELISA, periplasmic extract
row,OD450 nm,Binder
1,0.138,B1
2,0.139,B2
3,0.137,B3
4,0.586,B4
5,0.227,B5

# Biological target: human IL-12RB2 with C-terminal HA tag, transiently expressed on HEK-293T cells (human) (UniProt Q99665)
# Sequence (Q99665 24-862): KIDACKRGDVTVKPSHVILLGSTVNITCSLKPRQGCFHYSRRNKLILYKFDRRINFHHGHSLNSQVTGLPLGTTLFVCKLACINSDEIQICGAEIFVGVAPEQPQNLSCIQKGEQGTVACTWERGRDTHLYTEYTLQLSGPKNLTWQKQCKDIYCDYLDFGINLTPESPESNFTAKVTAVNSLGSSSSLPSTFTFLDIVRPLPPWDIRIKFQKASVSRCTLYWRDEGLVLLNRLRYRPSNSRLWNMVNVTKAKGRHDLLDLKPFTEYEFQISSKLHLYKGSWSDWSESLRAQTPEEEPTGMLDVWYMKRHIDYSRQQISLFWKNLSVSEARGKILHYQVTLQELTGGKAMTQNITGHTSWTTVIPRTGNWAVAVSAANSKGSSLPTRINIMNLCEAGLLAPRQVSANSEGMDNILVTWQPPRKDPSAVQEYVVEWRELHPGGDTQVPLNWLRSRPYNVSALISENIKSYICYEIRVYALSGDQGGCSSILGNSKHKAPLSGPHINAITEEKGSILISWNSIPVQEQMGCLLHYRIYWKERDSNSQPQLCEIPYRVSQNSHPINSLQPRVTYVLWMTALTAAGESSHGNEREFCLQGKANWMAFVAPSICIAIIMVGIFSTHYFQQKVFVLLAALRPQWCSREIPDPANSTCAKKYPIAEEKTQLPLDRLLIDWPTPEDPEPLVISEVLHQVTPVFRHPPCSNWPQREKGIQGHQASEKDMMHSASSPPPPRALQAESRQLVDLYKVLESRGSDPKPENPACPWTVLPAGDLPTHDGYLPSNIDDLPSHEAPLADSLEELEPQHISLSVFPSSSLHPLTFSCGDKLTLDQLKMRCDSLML
# Test: FACS, periplasmic extract, HEK-293T
row,FOB [fold],Binder
1,1.63,B2
2,0.99,B4
3,1.98,B6
4,1.54,B7

# Biological target: cyno IL-12RB2 with C-terminal HA tag, transiently expressed on HEK-293T cells (cyno)
# Sequence (chain, as listed by the source): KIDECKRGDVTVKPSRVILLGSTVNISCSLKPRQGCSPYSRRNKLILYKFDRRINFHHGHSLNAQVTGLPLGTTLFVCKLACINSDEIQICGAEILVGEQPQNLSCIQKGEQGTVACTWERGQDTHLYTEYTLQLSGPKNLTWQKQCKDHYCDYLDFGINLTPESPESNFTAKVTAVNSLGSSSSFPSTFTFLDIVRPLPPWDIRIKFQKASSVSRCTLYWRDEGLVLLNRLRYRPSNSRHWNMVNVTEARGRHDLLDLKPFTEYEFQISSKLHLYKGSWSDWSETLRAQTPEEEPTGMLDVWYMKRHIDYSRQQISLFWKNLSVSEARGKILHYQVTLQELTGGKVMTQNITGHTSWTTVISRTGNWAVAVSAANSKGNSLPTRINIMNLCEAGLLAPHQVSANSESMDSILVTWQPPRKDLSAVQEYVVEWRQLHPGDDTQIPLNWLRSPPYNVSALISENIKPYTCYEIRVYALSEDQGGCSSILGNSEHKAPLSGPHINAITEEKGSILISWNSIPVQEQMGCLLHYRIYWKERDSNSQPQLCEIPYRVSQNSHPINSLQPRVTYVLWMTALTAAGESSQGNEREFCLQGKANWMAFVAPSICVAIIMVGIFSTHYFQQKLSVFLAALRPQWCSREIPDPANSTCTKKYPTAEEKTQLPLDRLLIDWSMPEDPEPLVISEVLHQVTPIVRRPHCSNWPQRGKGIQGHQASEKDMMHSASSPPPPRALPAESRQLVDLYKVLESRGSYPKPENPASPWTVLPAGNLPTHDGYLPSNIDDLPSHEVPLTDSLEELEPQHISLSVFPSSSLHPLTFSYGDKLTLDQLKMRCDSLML
# Test: FACS, periplasmic extract, HEK-293T
row,FOB [fold],Binder
1,1.66,B8
2,2,B9

# Reference: patent publication US20250019450A1
